This assay concerns the target Fas/CD95 (human (endogenous in U-2 OS)) (UniProt P25445).
UniProt P25445, sequence (P25445 26-335): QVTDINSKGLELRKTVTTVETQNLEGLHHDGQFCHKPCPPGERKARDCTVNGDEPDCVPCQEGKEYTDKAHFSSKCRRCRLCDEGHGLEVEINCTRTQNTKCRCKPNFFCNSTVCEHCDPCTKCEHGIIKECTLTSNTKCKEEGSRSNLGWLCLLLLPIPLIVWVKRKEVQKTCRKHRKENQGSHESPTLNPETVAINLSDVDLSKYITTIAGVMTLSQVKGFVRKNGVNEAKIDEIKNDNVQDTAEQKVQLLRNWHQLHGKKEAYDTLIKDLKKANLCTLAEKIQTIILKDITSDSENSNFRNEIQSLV

As for Fas ligand (from UniProt P48023 1-281), the U-2 OS cell death with no granzyme-B FRET signal change in co-culture with primary NK cells (3-day cultured in IL-2), with 1.5 μg/ml anti-Fas neutralizing antibody (clone ZB4); control about 65% worked out at 28%.
